The source of these data is patent US20250213627A1, “RECOMBINANT MICROORGANISM-BASED METHODS AND COMPOSITIONS FOR TREATMENT OF DISEASE” (Baylor College of Medicine, priority 2021, published 2025).

Assay [1] addresses Kv1.3 potassium channel (species not stated for this experiment). Kind of assay: cell-based or functional assay.
Another assay deals with rat IgG. Description: ELISA positive control, wells coated with 1 µg/ml rat IgG, anti-rat IgG-HRP and TMB. A general note: An ELISA detects its analyte on a solid surface through an enzyme-linked reagent.

The substance “HA-tagged ShK-235 secreted by LrS235-HA (peptide)” came in with a block of peak Kv1.3 currents by culture supernatant (patch-clamp) in assay [1] of 25%.

anti-rat IgG-HRP (antibody): the reading at 450 nm with rat IgG came to 3.3 OD 450 nm.
